Numbering of substitutions follows the chain as printed.
B1: hz28G3-1.1-DDDXd (with DAR of 7.4) (antibody, human IgG1, kappa, DAR 7.4, V domains shown)
VH: QVQLVQSGAEVKKPGASVKVSCKTSGYSFTDYLMLWVRQAPGQGLEWMGNINPYYGRTTYALKFKGRVTMTVDRSTSTVYMELSSLRSEDTAVYYCARDGYSLRNAMDYWGQGTLVTVSS
VL: DIVMTQSPDSLAVSLGERATINCKSSQSLFNSGNQKNYLAWYQQKPGQPPKLLIYGASTRESGVPDRFSGSGSGTDFTLTISSLQAEDVAVYYCQNAHSYPYTFGQGTKVEIKR
modifications: linker-payload MC-GGFG-DDDXd (compound H) conjugated to cysteines of the reduced inter-chain disulfide bonds; positions not given; linker-payload MC-GGFG-DDDXd (compound H) conjugated to cysteines of the reduced inter-chain disulfide bonds; positions not given; DAR 7.4 for the whole molecule
notes: also called anti-CLDN18.2 antibody-drug conjugate
B2: humanized antibody hz28G3-1.1 (antibody, human IgG1, kappa, V domains shown)
VH: B1 VH
VL: B1 VL
notes: Naked humanized anti-CLDN18.2 antibody, human IgG1 / kappa, expressed in CHO cells
B3: hz28G3-1.3-DDDXd (with DAR of 7.6) (antibody, human IgG1, kappa, DAR 7.6, V domains shown)
VH: B1 VH with P41H, G44S
VL: B1 VL
modifications: linker-payload MC-GGFG-DDDXd (compound H) conjugated to cysteines of the reduced inter-chain disulfide bonds; positions not given; linker-payload MC-GGFG-DDDXd (compound H) conjugated to cysteines of the reduced inter-chain disulfide bonds; positions not given; DAR 7.6 for the whole molecule
notes: as for B1
B4: humanized antibody hz28G3-1.3 (antibody, human IgG1, kappa, V domains shown)
VH: B1 VH with P41H, G44S
VL: B1 VL
notes: as for B2

What follows are binders tested against T1, human CLDN18.2 (human) (assay: flow cytometry, CLDN18.2-overexpressing NIH-3T3 cells).
T1 construct: The construct in the CLDN18.2-overexpressing BxPC-3 and NCI-N87 lines is not described; KATOIII and NUGC-4 express CLDN18.2 naturally; All are written here as this one molecule; also called Claudin 18.2; tight junction protein 18.2
T1 sequence (chain, as listed by the source limits assumed): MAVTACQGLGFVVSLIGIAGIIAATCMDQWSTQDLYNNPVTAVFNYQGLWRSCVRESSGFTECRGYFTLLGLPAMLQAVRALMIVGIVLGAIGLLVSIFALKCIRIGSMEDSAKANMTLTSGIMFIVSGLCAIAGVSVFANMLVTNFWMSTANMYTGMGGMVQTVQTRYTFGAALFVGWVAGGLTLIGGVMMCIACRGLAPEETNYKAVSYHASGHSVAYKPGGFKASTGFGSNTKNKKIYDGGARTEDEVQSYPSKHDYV

**Q.** With B1 as the binder, how does the EC50 read?
**A.** 0.896 nM

**Q.** Which EC50 does the source give for B2 here?
**A.** 2.27 nM

**Q.** B3 was tested. Which EC50 did it give?
**A.** 0.593 nM

**Q.** How did the EC50 turn out when B4 was run?
**A.** 1.76 nM

Each binder was assayed against T1, human CLDN18.2 (assay: flow cytometry, CLDN18.2-overexpressing NCI-N87 cells).

**Q.** How did the EC50 turn out when B1 was run?
**A.** 1.17 nM

**Q.** With B2 as the binder, how does the EC50 read?
**A.** 2.61 nM

**Q.** For B3, which EC50 is on record?
**A.** 1.02 nM

**Q.** How did the EC50 turn out when B4 was run?
**A.** 2.73 nM

The binders below were run against T1, human CLDN18.2 (assay: flow cytometry, CLDN18.2-overexpressing BxPC-3 cells).

**Q.** B1 was tested. Which EC50 did it give?
**A.** 1.13 nM

**Q.** With B2 as the binder, how does the EC50 read?
**A.** 2.63 nM

**Q.** B3 was tested. Which EC50 did it give?
**A.** 0.946 nM

**Q.** How did the EC50 turn out when B4 was run?
**A.** 3.42 nM

Each binder was assayed against T1, human CLDN18.2 (assay: cell-based or functional assay).

**Q.** Which results are given for B1?
**A.** Endocytosis EC50, CLDN18.2-overexpressing NCI-N87 cells: 4.41 nM; Endocytosis EC50, CLDN18.2-overexpressing NIH-3T3 cells: 3.69 nM

**Q.** What does the source list for B2?
**A.** Endocytosis EC50, CLDN18.2-overexpressing NCI-N87 cells: 7.84 nM; Endocytosis EC50, CLDN18.2-overexpressing NIH-3T3 cells: 2.57 nM

**Q.** Which results are given for B3?
**A.** Endocytosis EC50, CLDN18.2-overexpressing NCI-N87 cells: 3.24 nM; Endocytosis EC50, CLDN18.2-overexpressing NIH-3T3 cells: 1.85 nM

**Q.** With B4 as the binder, how does the “Endocytosis EC50, CLDN18.2-overexpressing NCI-N87 cells” value read?
**A.** 6.68 nM

**Q.** And the “Endocytosis EC50, CLDN18.2-overexpressing NIH-3T3 cells” value?
**A.** 4.26 nM

Molecular target: T1, human CLDN18.2
Assay: cell-based or functional assay
Remark: another data set of the same source

**Q.** For B1, which “Killing activity IC50 (CellTiter-Glo), CLDN18.2-overexpressing BxPC-3 cells” value is on record?
**A.** 0.125 nM

**Q.** What about the “Killing activity IC50 (CellTiter-Glo), CLDN18.2-overexpressing NCI-N87 cells” value of the same binder?
**A.** 0.0381 nM

**Q.** And the “Killing activity IC50 (CellTiter-Glo), CLDN18.2-overexpressing NIH-3T3 cells” value?
**A.** 0.44 nM

**Q.** With B3 as the binder, how does the “Killing activity IC50 (CellTiter-Glo), CLDN18.2-overexpressing BxPC-3 cells” value read?
**A.** 0.0886 nM

**Q.** What about the “Killing activity IC50 (CellTiter-Glo), CLDN18.2-overexpressing NCI-N87 cells” value of the same binder?
**A.** 0.0337 nM

**Q.** And the “Killing activity IC50 (CellTiter-Glo), CLDN18.2-overexpressing NIH-3T3 cells” value?
**A.** 0.281 nM

Molecular target: T1, human CLDN18.2
Assay: cell-based or functional assay
Remark: another data set of the same source

**Q.** Which “CDC activity IC50, CLDN18.2-overexpressing NIH-3T3 cells with human complement” value does the source give for B1 here?
**A.** ~0.352 nM

**Q.** For B3, which “CDC activity IC50, CLDN18.2-overexpressing NIH-3T3 cells with human complement” value is on record?
**A.** ~0.352 nM

Source: patent publication EP4628104A1 (Shanghai Chia Tai Tianqing Pharmaceutical Technology …, dated 2024)
